Assay [1] deals with mCherry-EGFR (L858R/T790M)-HomoFC (UniProt P00533). Put plainly: split reporter.
Assay [2] has as its target mCherry-BICD2N-EGFR (Ex19Del/T790M/C797S)-HomoFC.
Assay [3] shares this target. Put plainly: split reporter.

“YFP–DARPin (E69)–BICD2N (from UniProt Q8TD16 1-594) (designed binder)” gave a percent reduction of EGFR oligomerization (HomoFC) in assay [1] of 50%.
In the case of “mCherry-BICD2N-EGFR (Ex19Del/T790M/C797S)-HomoFC (from UniProt Q8TD16;P00533) (receptor)”, the C/N ERK-KTR ratio after EGF stimulation in assay [2] is 0.64. For the same substance, in assay [3], the HomoFC/mCherry ratio (EGF) came to 0.12, the fold lower oligomer signal than WT EGFR at the basal level was 3.3 fold and the fold reduction of the oligomer signal against the nonfused mutant was 18.8 fold.

These data come from publication PMC12680046.
